From US20240199757A1 (UNIVERSITY OF CHICAGO, published 2024)
Where a chain is given by its changes, count along the chain named.

T1: Full-length cynomolgus NT5E (recombinant) (cynomolgus, UniProt P21589 27-549 (human entry))
T1 construct: also called cNT5E; cyno NT5E
T1 chain: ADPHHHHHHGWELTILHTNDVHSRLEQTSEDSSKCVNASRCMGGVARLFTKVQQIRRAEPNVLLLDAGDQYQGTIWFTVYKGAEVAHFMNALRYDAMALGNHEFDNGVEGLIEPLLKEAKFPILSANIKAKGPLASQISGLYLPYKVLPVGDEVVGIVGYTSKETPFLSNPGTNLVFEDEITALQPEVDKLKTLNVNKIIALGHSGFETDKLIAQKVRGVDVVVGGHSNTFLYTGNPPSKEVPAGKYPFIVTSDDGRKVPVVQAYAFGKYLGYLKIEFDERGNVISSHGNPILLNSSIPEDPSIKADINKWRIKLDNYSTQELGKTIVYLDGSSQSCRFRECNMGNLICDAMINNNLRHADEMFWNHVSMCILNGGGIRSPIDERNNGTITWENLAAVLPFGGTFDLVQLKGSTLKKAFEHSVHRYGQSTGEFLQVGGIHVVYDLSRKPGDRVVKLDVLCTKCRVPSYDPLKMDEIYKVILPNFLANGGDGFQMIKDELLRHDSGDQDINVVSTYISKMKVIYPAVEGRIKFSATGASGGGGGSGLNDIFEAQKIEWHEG

T2: Full-length human NT5E (recombinant, in-house) (human, UniProt P21589 27-549)
T2 construct: also called hNT5E; hNT5EWT
T2 sequence: T1 chain with T209M, M363T, I476V

T3: Full-length murine NT5E (recombinant) (murine, UniProt Q61503 29-552)
T3 construct: also called mNT5E
T3 sequence: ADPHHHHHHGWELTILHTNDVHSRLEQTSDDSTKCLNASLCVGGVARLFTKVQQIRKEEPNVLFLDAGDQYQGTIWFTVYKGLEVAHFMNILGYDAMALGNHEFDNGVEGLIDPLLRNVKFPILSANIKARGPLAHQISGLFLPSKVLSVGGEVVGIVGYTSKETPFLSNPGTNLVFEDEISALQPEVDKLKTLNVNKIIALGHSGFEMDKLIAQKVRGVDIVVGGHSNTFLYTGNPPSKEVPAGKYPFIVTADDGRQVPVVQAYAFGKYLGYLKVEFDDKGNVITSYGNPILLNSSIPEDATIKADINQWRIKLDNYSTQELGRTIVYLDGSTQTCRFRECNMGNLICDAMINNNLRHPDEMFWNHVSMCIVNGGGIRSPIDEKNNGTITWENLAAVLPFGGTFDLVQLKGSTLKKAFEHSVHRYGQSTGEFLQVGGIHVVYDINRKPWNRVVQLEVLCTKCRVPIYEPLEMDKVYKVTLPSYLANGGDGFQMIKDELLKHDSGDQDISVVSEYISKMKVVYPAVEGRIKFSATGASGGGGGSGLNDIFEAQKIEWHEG

B1: 1789 Fab (Fab, V domains shown)
VH: EVQLVESGGGLVQPGGSLRLSCAASGFNVSYSSIHWVRQAPGKGLEWVASISSSSGYTYYADSVKGRFTISADTSKNTAYLQMNSLRAEDTAVYYCARNYWGWYPFYYFAFDYWGQGTLVTV
VL: DIQMTQSPSSLSASVGDRVTITCRASQSVSSAVAWYQQKPGKAPKLLIYSASSLYSGVPSRFSGSRSGTDFTLTISSLQPEDFATYYCQQGWDYPITFGQGTKVEIKR
B2: 1789 IgG (antibody, V domains shown)
VH: EVQLVESGGGLVQPGGSLRLSCAASGFNVSYSSIHWVRQAPGKGLEWVASISSSSGYTYYADSVKGRFTISADTSKNTAYLQMNSLRAEDTAVYYCARNYWGWYPFYYFAFDYWGQGTLVTVSS
VL: B1 VL

What was measured:
[1] = biological target: T1, Full-length cynomolgus NT5E …; assay: SPR, His-captured NT5E, no ATP
Method: (§1) All SPR experiments were performed at 25° C. using MASS-1 (Bruker) instrument. hNT5E, mNT5E and cNT5E were immobilized onto a nitrilotriacetic acid (NTA) sensor chip via His-tag. For kinetic experiments, after ligand immobilization, 2-fold serial dilutions of the Fabs were injected. After double-reference subtraction data were analyzed with BiaEvaluation (GE Healthcare) or Sierra Analyser (Bruker) software. The experiments were carried in buffers in presence and absence of 1 mM ATP to compare the kinetic parameters of the Fabs binding to closed and open form of NT5E.

[2] = biological target: T2, Full-length human NT5E (recombinant, …); assay: SPR, His-captured NT5E, no ATP
Method: as §1

[3] = biological target: T1, Full-length cynomolgus NT5E …; assay: SPR, His-captured NT5E, no ATP; SPR, No ATP
Method: as §1

[4] = biological target: T3, Full-length murine NT5E (recombinant); assay: SPR, His-captured NT5E, 1 mM ATP; SPR, 1 mM ATP
Method: as §1

[5] = biological target: T1, Full-length cynomolgus NT5E …; assay: ELISA, biotinylated NT5E on neutravidin plate, no cofactors (apo)
Method: (§2) (B) Protein ELISA: Protein-based multipoint ELISA was performed to estimate the affinity of the generated Fabs and IgGs to NT5E. The binding of the Fabs and IgGs to the closed form of NT5E were determined in ELISA buffer (HBST) supplemented with 10 μM zinc chloride and 1 mM ATP while the binding of the same to open form of NT5E were determined in ELISA buffer (HBST) without any cofactors. A fixed concentration of the immobilized target (50 nM) on ELISA plate was incubated with 3-fold serial dilutions of the purified Fabs and IgGs starting from 3 μM and 1 μM respectively for 15 min. The plates were washed and were subsequently incubated with a secondary HRP-conjugated anti-protein L monoclonal antibody (#32420, ThermoFisher, 1:6000 dilution). As with phage ELISA, the plates were again washed, developed with TMB substrate and quenched with 1.0 M HCl, and absorbance (Abs450) was determined. To determine the affinity (EC50), the data were fitted with a non-linear, 4-parameter logistic curve in OriginLab.

[6] = biological target: T2, Full-length human NT5E (recombinant, …); assay: as above
Method: as §2

| Binder | Kd [1] [nM] | koff [1] [s⁻¹] | Kd [2] [nM] | koff [2] [s⁻¹] | kon [2] [M⁻¹ s⁻¹] | kon [3] [M⁻¹ s⁻¹] | Kd [4] [nM] | koff [4] [s⁻¹] | kon [4] [M⁻¹ s⁻¹] | EC50 [5] [nM] | EC50 [6] [nM] |
| --- | --- | --- | --- | --- | --- | --- | --- | --- | --- | --- | --- |
| B1 | 150 | 0.02 | 760 | 0.044 | 57000 | 140000 | 160 | 0.014 | 85000 | – | – |
| B2 | – | – | – | – | – | – | – | – | – | 1.04 | 2.14 |
